Conditions: Rattus norvegicus, pH 7, Fluorescence, Sodium-Potassium phosphate 0.1 M; for denaturant m value / denaturant midpoint (higher = more stable) / unfolding free energy: 15 °C, GdnHCl; for Tm / change of melting temperature, mutant - wild type (higher = more stable): Thermal

Cytochrome c, somatic Y68F, P62898, sequence (P62898 whole entry Y68F): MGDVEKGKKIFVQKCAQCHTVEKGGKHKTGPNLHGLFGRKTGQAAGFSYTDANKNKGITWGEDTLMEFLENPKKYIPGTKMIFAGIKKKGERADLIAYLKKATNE
Cytochrome c, somatic P31A, P62898, sequence (P62898 whole entry P31A): as the sequence (P62898 whole entry Y68F) above, with P31A, F68Y counted along it
Cytochrome c, somatic wild type, P62898, sequence (P62898 whole entry): as the sequence (P62898 whole entry Y68F) above, with F68Y counted along it
Cytochrome c, somatic P31A|Y68F, P62898 P31A Y68F, sequence (P62898 whole entry P31A/Y68F): as the sequence (P62898 whole entry Y68F) above, with P31A counted along it

Substance	denaturant m value (structure 1I5T)	denaturant midpoint (higher = more stable) (structure 1I5T)	unfolding free energy (structure 1I5T)	Tm (structure 1I5T)	change of melting temperature, mutant - wild type (higher = more stable) (structure 1I5T)	denaturant m value	denaturant midpoint (higher = more stable)	unfolding free energy	Tm
Cytochrome c, somatic P31A|Y68F, P62898 P31A Y68F	1.16 kcal/mol/M	5.81 M	6.74 kcal/mol	62 °C	2 °C				
Cytochrome c, somatic Y68F, P62898	0.86 kcal/mol/M	8.33 M	7.19 kcal/mol	90 °C	30 °C				
Cytochrome c, somatic wild type, P62898						1.21 kcal/mol/M	7.6 M	9.15 kcal/mol	60 °C
Cytochrome c, somatic P31A, P62898	0.7 kcal/mol/M	5.38 M	3.76 kcal/mol	51 °C	-9 °C				

— FireProtDB (doi:10.1021/bi00150a030)
